Test results taken from paper PMC3367197 (Nucleic Acids Research, 2012).
“And” between values parts separate entries of the source, which are not always exact repeats. Equal values may be shown once. One block for each molecule: values may come before it.

Experiments:
[1] = molecular target: His-tagged human NPM3 (human) (UniProt O75607); test: native MS
[2] = molecular target: His-tagged human NPM3 (human) (UniProt O75607); test: native gel or EMSA
His-tagged human NPM1 = His-tagged human NPM1 (human, UniProt P06748 1-294); test: native gel or EMSA
cross-linking = molecular target: the molecule itself; test: cross-linking

His-tagged human NPM1, sequence (P06748 whole entry): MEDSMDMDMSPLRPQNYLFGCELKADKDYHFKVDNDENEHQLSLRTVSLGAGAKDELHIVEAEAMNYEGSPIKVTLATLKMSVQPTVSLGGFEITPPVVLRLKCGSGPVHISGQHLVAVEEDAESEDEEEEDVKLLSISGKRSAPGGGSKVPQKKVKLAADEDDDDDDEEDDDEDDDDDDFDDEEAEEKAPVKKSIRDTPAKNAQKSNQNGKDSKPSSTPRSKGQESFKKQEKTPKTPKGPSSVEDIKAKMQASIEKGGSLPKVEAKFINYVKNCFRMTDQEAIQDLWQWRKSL

stoichiometry N [1]: 2
stoichiometry N [2]: 2
Molecule: His-tagged human NPM3 (from UniProt O75607 1-178) (natural protein)

stoichiometry N (His-tagged human NPM1): 4 NPM1 per NPM3 (NPM1:NPM3 4:1)
B1: His-tagged human NPM3 (natural protein)
chain: MAAGTAAALAFLSQESRTRAGGVGGLRVPAPVTMDSFFFGCELSGHTRSFTFKVEEEDDAEHVLALTMLCLTEGAKDECNVVEVVARNHDHQEIAVPVANLKLSCQPMLSLDDFQLQPPVTFRLKSGSGPVRITGRHQIVTMSNDVSEEESEEEEEDSDEEEVELCPILPAKKQGGRP

B2: His-tagged human NPM2 (natural protein)
chain: MNLSSASSTEEKAVTTVLWGCELSQERRTWTFRPQLEGKQSCRLLLHTICLGEKAKEEMHRVEILPPANQEDKKMQPVTIASLQASVLPMVSMVGVQLSPPVTFQLRAGSGPVFLSGQERYEASDLTWEEEEEEEGEEEEEEEEDDEDEDADISLEEQSPVKQVKRLVPQKQASVAKKKKLEKEEEEIRASVRDKSPVKKAKATARAKKPGFKK
stoichiometry N (cross-linking): 5 and 10
